Two molecules from paper PMC5503513, “Tandem hnRNP A1 RNA recognition motifs act in concert to repress the splicing of survival motor neuron exon 7” can be followed below.

In data set [1] the target is T1, hnRNP A1 RRM2 E176Q (UniProt P09651 95-196, E176Q). In words: ITC; ITC: 10 mM NaPi pH 6.5, 10 mM 2-mercaptoethanol, 30 C, protein titrated into RNA; NMR: 10 mM NaPi pH 6.5, 1 mM DTT (303 K stated for UP1-R140A:ISS-N1-u25g). To be noted: protein: recombinant; single strand. Background: ITC needs no label: the signal is the heat of the interaction.
The next data set deals with hnRNP A1 RRM2 (UniProt P09651 95-196). Described as above. Conditions: protein: recombinant; single strand.
Data set [2] addresses T2, hnRNP A1 RRM2 R140A (UniProt P09651 95-196, R140A). The data set is described as above. Conditions: protein: recombinant; single strand.
The next data set deals with hnRNP A1 RRM2 Y167F (UniProt P09651 95-196, Y167F). Described as above. To be noted: protein: recombinant; single strand.
In data set [3] the target is T3, hnRNP A1 RRM2 M186A (UniProt P09651 95-196, M186A). The data set is described as above. Conditions: protein: recombinant; single strand.
Data set [4] has as its target UP1 r1R2 (UniProt P09651 1-196, F17A;F59A). Described as above. Conditions: protein: recombinant; single strand.
The target of data set [5] is T4, hnRNP A1 RRM1 D42A (UniProt P09651 2-97, D42A). In words: ITC; range, no saturation; ITC: 10 mM NaPi pH 6.5, 10 mM 2-mercaptoethanol, 30 C, protein titrated into RNA; NMR: 10 mM NaPi pH 6.5, 1 mM DTT (303 K stated for UP1-R140A:ISS-N1-u25g). Conditions: protein: recombinant; single strand.
Data set [6] deals with T5, hnRNP A1 RRM1 (UniProt P09651 2-97). The description is as above. Conditions: protein: recombinant; single strand.
Data set [7] has as its target T1, hnRNP A1 RRM2 E176Q. The experiment in a line: ITC; 10 mM sodium phosphate pH 6.5, 10 mM 2-mercaptoethanol, no added salt, 30 C; RNA 5-10 uM in the cell; 1:1 fit. To be noted: none in PDB 5MPL.
The target of data set [8] is hnRNP A1 UP1 R1r2 (Homo sapiens, UniProt P09651 2-196, F108A;F150A). Described as above. Conditions: extra N-terminal Gly-Gly in PDB 2LYV (left out).
Data set [9] addresses hnRNP A1 UP1 r1R2 (Homo sapiens, UniProt P09651 2-196, F17A;F59A). The data set is described as above. To be noted: extra N-terminal Gly-Gly in PDB 2LYV (left out).
Data set [10] concerns the target T4, hnRNP A1 RRM1 D42A. The description is as above. To be noted: one extra N-terminal Ala in PDB 5MPG (left out).
Data set [11] addresses T2, hnRNP A1 RRM2 R140A. The data set is described as above. Conditions: none in PDB 5MPL.
For data set [12], the target named is T3, hnRNP A1 RRM2 M186A. Described as above. To be noted: none in PDB 5MPL.
The target in data set [13] is T6, hnRNP A1 RRM1 R92A (UniProt P09651 2-97, R92A). Described as above. To be noted: one extra N-terminal Ala in PDB 5MPG (left out).
Data set [14] addresses T5, hnRNP A1 RRM1. The description is as above. To be noted: one extra N-terminal Ala in PDB 5MPG (left out).
Data set [15] deals with T4, hnRNP A1 RRM1 D42A. In words: ITC; ITC: 10 mM NaPi pH 6.5, 10 mM 2-mercaptoethanol, 30 C, protein titrated into RNA; NMR: 10 mM NaPi pH 6.5, 1 mM DTT (303 K stated for UP1-R140A:ISS-N1-u25g). To be noted: protein: recombinant; single strand.
The target of data set [16] is UP1 R1r2 (UniProt P09651 1-196, F108A;F150A). The data set is described as above. To be noted: protein: recombinant; single strand.
The target of data set [17] is T7, hnRNP A1 RRM1 F23A (UniProt P09651 2-97, F23A). Described as above. To be noted: protein: recombinant; single strand.
Data set [18] has as its target T5, hnRNP A1 RRM1. The description is as above. To be noted: protein: recombinant; single strand.
In data set [19] the target is T7, hnRNP A1 RRM1 F23A. The experiment in a line: ITC; second listed measurement; ITC: 10 mM NaPi pH 6.5, 10 mM 2-mercaptoethanol, 30 C, protein titrated into RNA; NMR: 10 mM NaPi pH 6.5, 1 mM DTT (303 K stated for UP1-R140A:ISS-N1-u25g). To be noted: protein: recombinant; single strand.
In data set [20] the target is T5, hnRNP A1 RRM1. In words: ITC; first listed measurement; ITC: 10 mM NaPi pH 6.5, 10 mM 2-mercaptoethanol, 30 C, protein titrated into RNA; NMR: 10 mM NaPi pH 6.5, 1 mM DTT (303 K stated for UP1-R140A:ISS-N1-u25g). Conditions: protein: recombinant; single strand.
Data set [21] deals with T6, hnRNP A1 RRM1 R92A. The experiment in a line: ITC; range, no saturation; ITC: 10 mM NaPi pH 6.5, 10 mM 2-mercaptoethanol, 30 C, protein titrated into RNA; NMR: 10 mM NaPi pH 6.5, 1 mM DTT (303 K stated for UP1-R140A:ISS-N1-u25g). To be noted: protein: recombinant; single strand.
Data set [22] has as its target T7, hnRNP A1 RRM1 F23A. In words: ITC; 10 mM sodium phosphate pH 6.5, 10 mM 2-mercaptoethanol, no added salt, 30 C; RNA 5-10 uM in the cell; 1:1 fit. Conditions: one extra N-terminal Ala in PDB 5MPG (left out).
The target in another data set is hnRNP A1 RRM1 R55A (UniProt P09651 2-97, R55A). Described as above. To be noted: one extra N-terminal Ala in PDB 5MPG (left out).
Sequence of hnRNP A1 RRM1 R55A (P09651 2-97 R55A): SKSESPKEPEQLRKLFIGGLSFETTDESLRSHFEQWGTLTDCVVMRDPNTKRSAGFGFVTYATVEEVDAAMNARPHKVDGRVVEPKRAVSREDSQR

T6 sequence (P09651 2-97 R92A): as the sequence (P09651 2-97 R55A) above, with A54R, R91A counted along it
T7 sequence (P09651 2-97 F23A): as the sequence (P09651 2-97 R55A) above, with F22A, A54R counted along it
T4 sequence (P09651 2-97 D42A): as the sequence (P09651 2-97 R55A) above, with D41A, A54R counted along it
T5 sequence (P09651 2-97): as the sequence (P09651 2-97 R55A) above, with A54R counted along it
T2 sequence (P09651 95-196 R140A): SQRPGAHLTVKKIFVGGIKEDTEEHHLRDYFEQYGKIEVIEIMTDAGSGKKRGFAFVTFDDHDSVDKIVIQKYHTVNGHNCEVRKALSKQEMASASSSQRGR
T1 sequence (P09651 95-196 E176Q): as the sequence (P09651 95-196 R140A) above, with A46R, E82Q counted along it
T3 sequence (P09651 95-196 M186A): as the sequence (P09651 95-196 R140A) above, with A46R, M92A counted along it
Sequence of hnRNP A1 UP1 R1r2 (P09651 2-196 F108A/F150A): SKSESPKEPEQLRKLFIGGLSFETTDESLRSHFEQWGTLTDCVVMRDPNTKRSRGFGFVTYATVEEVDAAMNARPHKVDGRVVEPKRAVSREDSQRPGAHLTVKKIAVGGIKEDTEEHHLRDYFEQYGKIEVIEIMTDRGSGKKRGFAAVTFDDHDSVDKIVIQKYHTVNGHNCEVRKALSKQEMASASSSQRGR
Sequence of hnRNP A1 UP1 r1R2 (P09651 2-196 F17A/F59A): as the sequence (P09651 2-196 F108A/F150A) above, with F16A, F58A, A107F, A149F counted along it
Sequence of UP1 r1R2 (P09651 1-196 F17A/F59A): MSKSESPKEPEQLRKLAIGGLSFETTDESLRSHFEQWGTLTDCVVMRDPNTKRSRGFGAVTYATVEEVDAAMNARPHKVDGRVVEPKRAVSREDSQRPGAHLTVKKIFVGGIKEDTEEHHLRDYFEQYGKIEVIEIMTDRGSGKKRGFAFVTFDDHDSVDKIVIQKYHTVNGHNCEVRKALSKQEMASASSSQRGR
Sequence of hnRNP A1 RRM2 (P09651 95-196): as the sequence (P09651 95-196 R140A) above, with A46R counted along it
Sequence of hnRNP A1 RRM2 Y167F (P09651 95-196 Y167F): as the sequence (P09651 95-196 R140A) above, with A46R, Y73F counted along it
Sequence of UP1 R1r2 (P09651 1-196 F108A/F150A): as the sequence (P09651 1-196 F17A/F59A) above, with A17F, A59F, F108A, F150A counted along it

For orientation: Kd means the equilibrium constant for the complex coming apart. As to UUAGUU (ssRNA), the Kd with hnRNP A1 RRM2 E176Q [1] came to 286 ± 12 nM; with hnRNP A1 RRM2, 125 ± 9 nM; with hnRNP A1 RRM2 R140A [2], 433 ± 26 nM; in the data set with hnRNP A1 RRM2 Y167F it was 118 ± 9 nM; with hnRNP A1 RRM2 M186A [3] it was 253 ± 15 nM; in the data set with UP1 r1R2 [4] it was 142 ± 9 nM. Further, the Kd in the data set with hnRNP A1 RRM1 D42A [5] is around 2240 nM; in the data set with hnRNP A1 RRM1 [6], around 5200 nM; in the data set with hnRNP A1 RRM2 E176Q [7] it was 286 ± 12 nM; with hnRNP A1 UP1 R1r2 [8] it was 105 ± 8 nM; in the data set with hnRNP A1 UP1 r1R2 [9], 142 ± 9 nM; in the data set with hnRNP A1 RRM1 D42A [10], around 2690 nM. Moreover, the Kd with hnRNP A1 RRM2 R140A [11] was 433 ± 26 nM; in the data set with hnRNP A1 RRM2 M186A [12], 253 ± 15 nM; with hnRNP A1 RRM1 R92A [13], above 10000 nM; with hnRNP A1 RRM1 [14], around 5990 nM.

In the case of UUAGGUC (ssRNA), the Kd amounted to 116 ± 39 nM with hnRNP A1 RRM2 E176Q [1]; 787 ± 42 nM in the data set with hnRNP A1 RRM1 D42A [15]; 64 ± 8 nM with hnRNP A1 RRM2; 47 ± 2 nM with UP1 R1r2 [16]; 195 ± 12 nM with hnRNP A1 RRM2 R140A [2]; 225 ± 13 nM with hnRNP A1 RRM1 F23A [17]. Moreover, the dissociation constant Kd was 56 ± 4 nM with UP1 r1R2 [4]; 288 ± 16 nM with hnRNP A1 RRM1 [18]; 193 ± 11 nM in the data set with hnRNP A1 RRM1 F23A [19]; 292 ± 17 nM with hnRNP A1 RRM1 [20]; around 2240 nM with hnRNP A1 RRM1 R92A [21]; 45 ± 2 nM in the data set with hnRNP A1 UP1 R1r2 [8]. The Kd with hnRNP A1 UP1 r1R2 [9] was 56.2 ± 4 nM; with hnRNP A1 RRM1 D42A [10] it was 787 ± 42 nM; with hnRNP A1 RRM2 R140A [11] it was 195 ± 12 nM; with hnRNP A1 RRM1 F23A [22], 209 ± 13 nM; in the data set with hnRNP A1 RRM1 R55A it was above 10000 nM; with hnRNP A1 RRM1 R92A [13], around 2850 nM.
